The text below walks through data of US20140178935A1 (AVEO PHARMACEUTICALS, published 2014).

For test [1], the target named is T1, recombinant human HGF (R&D Systems, Catalog No. 294-HGN-025) (human, UniProt P14210 32-728). The experiment in a line: cell-based or functional assay.
Test [2] has as its target T1, recombinant human HGF (R&D Systems, …). The test can be described thus: cell-based or functional assay. The source holds these as a separate data set.
The target is the same in test [3]. The experiment in a line: SPR, captured antibody, HGF injected, 25 C. (Surface plasmon resonance follows binding to a sensor surface in real time, without labels.)
For test [4] the target is unchanged. The test can be described thus: SPR, captured antibody, HGF injected, 37 C. The method, then:
Mouse anti-human immunoglobulins (Jackson Labs, Catalog No. 209-005) or rabbit anti-mouse immunoglobulins (BIAcore, Catalog No. BR-1005-14) were immobilized on carboxymethylated dextran CM4 sensor chips (BIAcore, Catalog No. BR-1006-68) by amine coupling (BIAcore, Catalog No. BR-1000-50) using a standard coupling protocol according to manufacturer's instructions. […] The analyses were performed at 25° C. and 37° C. using PBS (GIBCO, Catalog No. 14040-133) containing 0.05% surfactant P20 (BIAcore, Catalog No. BR-1000-54), and 2 mg/mL BSA (EMD, Catalog No. 2930) as running buffer.
The antibodies were captured in an individual flow cell at a flow rate of […]. Injection time was variable for each antibody to yield approximately 20 RU of antibody captured for each cycle. […] The dissociation phase was monitored for 15 or 90 minutes, depending on concentration. The surface of mouse anti-human immunoglobulins sensor chips was then regenerated with 10 mM Glycine-HCl, pH 2.2 (BIAcore, Catalog No. BR-1003-54) injected for 3 minutes at a flow rate of 60 μL/min before another cycle was initiated. The surface of rabbit anti-mouse immunoglobulins sensor chips was regenerated with 10 mM Glycine-HCl, pH 1.7 (BIAcore, Catalog No. BR-1003-54) injected for 3 minutes at a flow rate of 60 μL/min before another cycle was initiated.
Kinetic parameters were determined using the kinetic function of the BIAevaluation software with reference subtraction.

Test [5] addresses T2, recombinant mouse HGF (R&D Systems) (mouse, UniProt Q08048 33-728).
T2 construct: Bought protein, construct not described; also called rmHGF (R&D Systems); murine HGF
The test can be described thus: SPR, antibody immobilized, HGF protein injected, 25 C.

The target in test [6] is T1, recombinant human HGF (R&D Systems, …). The test can be described thus: SPR, antibody captured by anti-mouse Ig, HGF injected, 25 C.

T1 sequence (P14210 32-728 limits assumed): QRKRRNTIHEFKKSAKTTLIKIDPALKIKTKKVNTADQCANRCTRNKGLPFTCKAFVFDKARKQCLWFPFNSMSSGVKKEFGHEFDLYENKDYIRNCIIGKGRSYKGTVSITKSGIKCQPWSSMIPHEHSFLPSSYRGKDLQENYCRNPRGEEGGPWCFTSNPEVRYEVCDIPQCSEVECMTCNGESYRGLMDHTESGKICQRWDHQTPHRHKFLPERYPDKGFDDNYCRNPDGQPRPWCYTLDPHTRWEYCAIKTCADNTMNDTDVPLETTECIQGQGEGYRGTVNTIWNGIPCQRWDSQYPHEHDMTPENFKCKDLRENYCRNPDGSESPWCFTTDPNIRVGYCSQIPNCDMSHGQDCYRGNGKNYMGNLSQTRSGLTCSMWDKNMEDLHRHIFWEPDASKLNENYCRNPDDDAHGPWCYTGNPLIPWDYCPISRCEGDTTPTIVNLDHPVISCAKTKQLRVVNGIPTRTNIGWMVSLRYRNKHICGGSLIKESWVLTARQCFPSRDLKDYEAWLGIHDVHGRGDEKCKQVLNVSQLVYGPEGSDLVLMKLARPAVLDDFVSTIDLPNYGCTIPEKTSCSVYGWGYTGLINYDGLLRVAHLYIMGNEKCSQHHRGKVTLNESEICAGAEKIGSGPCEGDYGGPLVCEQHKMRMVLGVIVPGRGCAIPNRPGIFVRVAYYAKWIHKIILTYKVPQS
T2 sequence (Q08048 33-728 limits assumed): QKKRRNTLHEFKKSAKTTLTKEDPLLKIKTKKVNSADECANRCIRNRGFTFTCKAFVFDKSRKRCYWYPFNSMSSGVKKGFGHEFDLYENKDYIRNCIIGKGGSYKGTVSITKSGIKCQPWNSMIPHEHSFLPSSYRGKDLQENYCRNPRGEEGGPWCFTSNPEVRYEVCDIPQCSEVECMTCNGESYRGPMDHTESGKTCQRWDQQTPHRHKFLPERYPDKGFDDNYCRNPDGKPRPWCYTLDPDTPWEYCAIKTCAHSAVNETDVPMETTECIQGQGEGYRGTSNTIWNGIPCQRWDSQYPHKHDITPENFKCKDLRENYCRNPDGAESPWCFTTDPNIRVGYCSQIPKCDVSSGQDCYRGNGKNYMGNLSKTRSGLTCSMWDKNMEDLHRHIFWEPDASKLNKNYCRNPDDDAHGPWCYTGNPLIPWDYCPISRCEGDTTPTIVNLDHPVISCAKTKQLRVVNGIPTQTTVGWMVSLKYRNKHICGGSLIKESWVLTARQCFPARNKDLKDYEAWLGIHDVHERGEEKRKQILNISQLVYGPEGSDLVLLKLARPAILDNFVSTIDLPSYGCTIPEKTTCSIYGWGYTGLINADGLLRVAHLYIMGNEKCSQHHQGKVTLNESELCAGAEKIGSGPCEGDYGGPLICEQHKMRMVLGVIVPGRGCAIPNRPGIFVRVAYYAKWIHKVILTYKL

B1: anti-hHGF monoclonal antibody 2B8 (antibody, mouse IgG1, kappa)
heavy: QVQLQQPGAELVKPGTSVKLSCKASGYTFTTYWMHWVNQRPGQGLEWIGEINPTNGHTNYNEKFKSKATLTVDKSSSTAYMQLSSLTSEDSAVYYCARNYVGSIFDYWGQGTTLTVSSAKTTPPSVYPLAPGSAAQTNSMVTLGCLVKGYFPEPVTVTWNSGSLSSGVHTFPAVLQSDLYTLSSSVTVPSSTWPSETVTCNVAHPASSTKVDKKIVPRDCGCKPCICTVPEVSSVFIFPPKPKDVLTITLTPKVTCVVVDISKDDPEVQFSWFVDDVEVHTAQTQPREEQFNSTFRSVSELPIMHQDWLNGKEFKCRVNSAAFPAPIEKTISKTKGRPKAPQVYTIPPPKEQMAKDKVSLTCMITDFFPEDITVEWQWNGQPAENYKNTQPIMDTDGSYFVYSKLNVQKSNWEAGNTFTCSVLHEGLHNHHTEKSLSHSPGK
light: NIVMTQSPKSMSMSVGERVTLSCKASENVVSYVSWYQQKPAQSPKLLIYGASNRNTGVPDRFTGSGSATDFTLTISSVRAEDLADYHCGQSYNYPYTFGGGTRLEIKRADAAPTVSIFPPSSEQLTSGGASVVCFLNNFYPKDINVKWKIDGSERQNGVLNSWTDQDSKDSTYSMSSTLTLTKDEYERHNSYTCEATHKTSTSPIVKSFNRNEC
notes: Murine IgG1 kappa from hybridoma; also called murine 2B8; mouse 2B8
B1: the “IC50, neutralization of HGF stimulated BrdU incorporation in 4 MBr-5 cells” value in test [1] was 0.86 nM. In test [2], the “EC50, inhibition of HGF-stimulated c-Met phosphorylation in PC-3 cells, Average of Two Trials” value was 0.91 nM. In test [3], the Kd (in general, the equilibrium constant for the complex coming apart) was 0.0073 nM; the koff (commonly a measure of how fast the partners let go of each other) was determined as 1e-05 s⁻¹; the on-rate (kon) (in general, a measure of how fast the partners come together) amounted to 1.4e+06 M⁻¹ s⁻¹. Also, in test [4], the dissociation constant Kd is 0.0045 nM, the koff amounted to 1.3e-05 s⁻¹ and the kon was found to be 2.8e+06 M⁻¹ s⁻¹. Besides, in test [5], the binding result is given as “no binding”. Also, in test [6], the Kd came out at 0.0135 nM, the koff is 2.1e-05 s⁻¹ and the kon is 1.6e+06 M⁻¹ s⁻¹.

B2: HE2B8-4 (LRMR2B8HC + IgG1 constant region G1m(3) allotype allele 1, plus LRMR2B8LC + Kappa constant region Km(3) allotype allele 1) (antibody, V domains shown)
VH: QVQLVQPGAEVKKPGTSVKLSCKASGYTFTTYWMHWVRQAPGQGLEWIGEINPTNGHTNYNQKFQGRATLTVDKSTSTAYMELSSLRSEDTAVYYCARNYVGSIFDYWGQGTLLTVSS
VL: DIVMTQSPDSLAMSLGERVTLNCKASENVVSYVSWYQQKPGQSPKLLIYGASNRESGVPDRFSGSGSATDFTLTISSVQAEDVADYHCGQSYNYPYTFGQGTKLEIKR
notes: Human Engineered 2B8 variant, human IgG1 kappa, made in HEK293E cells
In the case of B2, in test [1], the “IC50, neutralization of HGF stimulated BrdU incorporation in 4 MBr-5 cells” value worked out at 0.58 nM. Also, the “EC50, inhibition of HGF-stimulated c-Met phosphorylation in PC-3 cells, Average of Two Trials” value in test [2] is 0.75 nM. For the same molecule, in test [3], the Kd was 0.0065 nM, the koff worked out at 1.1e-05 s⁻¹ and the kon worked out at 1.7e+06 M⁻¹ s⁻¹. Further, in test [4], the equilibrium dissociation constant (Kd) worked out at 0.0033 nM, the koff came to 1e-05 s⁻¹ and the kon is 3.1e+06 M⁻¹ s⁻¹. Moreover, the binding result in test [5] is “no binding”.
